The record followed here is publication PMC11602157, “ZNF512B binds RBBP4 via a variant NuRD interaction motif and aggregates chromatin in a NuRD complex-independent manner” (Nucleic Acids Research, 2024).

This assay deals with RBBP4, recombinant, for fluorescence polarization (human), Q09028. Put plainly: fluorescence polarisation; competitive: unlabeled peptide (1.0–0.0 mM series) added to preformed complex of 1 nM FAM tracer and 40 nM RBBP4; 50 mM Tris-HCl pH 7.5, 150 mM NaCl, 0.02% Triton X-100; read after 60 min; ki from IC50. Background: Polarisation of emitted light reports the rotation of a fluorescent probe.
Chain of RBBP4, recombinant, for fluorescence polarization (human), Q09028 (Q09028 whole entry): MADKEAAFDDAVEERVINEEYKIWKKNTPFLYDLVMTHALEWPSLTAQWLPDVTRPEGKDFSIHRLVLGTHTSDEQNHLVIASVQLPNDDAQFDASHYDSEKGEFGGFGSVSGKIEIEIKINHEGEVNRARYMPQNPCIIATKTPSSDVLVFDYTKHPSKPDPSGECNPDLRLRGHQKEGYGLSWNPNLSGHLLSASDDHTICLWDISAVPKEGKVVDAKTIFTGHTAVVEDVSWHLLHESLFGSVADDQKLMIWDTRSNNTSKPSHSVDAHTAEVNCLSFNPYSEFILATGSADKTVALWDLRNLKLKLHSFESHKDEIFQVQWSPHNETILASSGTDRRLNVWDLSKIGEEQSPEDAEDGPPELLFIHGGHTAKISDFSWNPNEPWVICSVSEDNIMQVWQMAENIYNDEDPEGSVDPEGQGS

B1: ZNF512B NIM peptide (unlabeled ZNF512B iNIM) (peptide)
chain: KHRRKQKTPKKF
modifications: not checked
As usually defined, the Ki is the dissociation constant of the complex between target and ligand, obtained from inhibition or displacement. Take B1: the inhibition constant (Ki) came out at 19 nM.
